Measurements published in patent CN115819579A (UNIV ZHEJIANG, dated 2023).

Columns and labels:
IL-17A重组蛋白 = molecular target: T1, IL-17A重组蛋白 (UniProt Q16552 24-155, limits assumed); assay: BLI (Fortebio)
T1 construct: also called 重组蛋白IL-17A; IL-17A抗原
T1 sequence (looked up): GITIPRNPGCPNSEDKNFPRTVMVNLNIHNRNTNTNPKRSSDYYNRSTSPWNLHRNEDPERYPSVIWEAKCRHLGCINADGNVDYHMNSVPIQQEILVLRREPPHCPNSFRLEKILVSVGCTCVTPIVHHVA

牛血清白蛋白(BSA) = molecular target: T2, 牛血清白蛋白(BSA) (bovine, UniProt P02769 25-607); assay: ELISA, BSA coated at 1 μg/ml, anti-His detection, OD450
T2 construct: Control antigen of the specificity ELISA
T2 sequence (P02769 25-607 limits assumed): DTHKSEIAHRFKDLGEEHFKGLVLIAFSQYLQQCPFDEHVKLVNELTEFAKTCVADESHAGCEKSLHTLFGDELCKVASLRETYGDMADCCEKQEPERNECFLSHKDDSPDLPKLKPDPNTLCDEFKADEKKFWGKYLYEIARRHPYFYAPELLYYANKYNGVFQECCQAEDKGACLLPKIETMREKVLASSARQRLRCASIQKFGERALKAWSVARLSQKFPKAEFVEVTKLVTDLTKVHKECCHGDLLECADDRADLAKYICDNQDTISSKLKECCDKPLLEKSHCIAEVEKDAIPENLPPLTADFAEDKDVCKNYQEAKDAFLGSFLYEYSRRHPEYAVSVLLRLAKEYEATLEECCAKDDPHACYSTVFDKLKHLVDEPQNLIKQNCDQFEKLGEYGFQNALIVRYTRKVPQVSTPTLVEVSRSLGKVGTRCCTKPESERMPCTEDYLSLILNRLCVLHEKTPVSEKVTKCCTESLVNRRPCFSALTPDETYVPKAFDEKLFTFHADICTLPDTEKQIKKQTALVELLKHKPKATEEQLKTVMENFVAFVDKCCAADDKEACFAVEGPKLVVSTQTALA

- Kd (IL-17A重组蛋白): 110 nM
- binding result (牛血清白蛋白(BSA)): no binding (tested: 0.1μg/ml)
B1: 全人源抗IL-17A单链抗体No.34 (scFv)
scFv: MQVQLVQSGAEVKPPGASVKVSCKASGYTFTTHKIQWVRQAPGQRLEWMGWINTDKGDTKYSQKFQGRVTITSDTSASTAFMDLSSLRSEDTAVYYCARDGEGYAPFGMDVWGQGTTVTVSSGGGGSGGGGSGGGGSDIRLTQSPPSLSASVGDRVTITCRASQTIGSHLNWYQQKPGKAPKLLIYAASSLQSGVPSRFSGSGSGTDFTLTISSLQPEDFATYYCQQSHSGLTFGGGTKVDIK
notes: also called anti-IL-17A scFv No.34; Anti-IL-17A scFv No.34
